Columns and labels:
Type in all cases: in vivo, athymic nude mice
[1] = system: human breast tumor xenografts (MDA-MB-468); assay: Human breast cancer (MDA-MB-468) xenograft, moderate tumors ~145 mm^3 (Example 3); settings: start ~145 mm^3; i.v.; 1×10^9 minicells per dose; IFN-gamma 0.5×10^4 IU per dose; by day 30, six doses
Experimental: (§1) As described above, minicells were purified, packaged with doxorubicin, and targeted using single chain bispecific antibody with anti-O-polysaccharide and anti-EGFR specificities. Additionally, human breast cancer cells (MDA-MB-468; ATCC) were established as xenografts in nu/nu mice, and tumor volumes were measured, also as described.
The treatments commenced when the tumors reached a mean of ˜145 mm^3, and mice were randomized to four different groups of seven mice per group. All treatments were administered i.v. in a total volume of 100 μl. All minicell doses contained 1×10^9 minicells of the respective type.
The experiment was designed as follows: Group 1 (control) received sterile physiological saline only. Group 2 (control) received IFN-gamma (0.5×10^4 IU) per dose.

[2] = system: human breast tumor xenografts (MDA-MB-468); assay: Human breast cancer (MDA-MB-468) xenograft, large tumors ~250 mm^3 (Example 4); settings: start ~250 mm^3; i.v.; 1×10^9 minicells per dose; IFN-gamma 0.5×10^4 IU per dose; by day 28, 3 doses
Experimental: as §1, with “doxorubicin” for “doxorubicin,”, “Human” for “Additionally, human”, “(MDA-MB-468)” for “(MDA-MB-468; ATCC)”, “described above.” for “described.”
The treatments were begun when the tumors reached a mean of ˜250 mm^3. As above, mice were randomized to four different groups of seven mice per group. The i.v. administration and minicell doses were as above, too.
The experiment was designed as follows. Group 1 (control) received sterile physiological saline only. Group 2 (control) received IFN-gamma (0.5×10^4 IU) per dose.

[3] = system: human alveolar adenocarcinoma tumor xenografts (A549); assay: Human alveolar adenocarcinoma (A549) xenograft, tumors ~285 mm^3 (Example 2); settings: start ~285 mm^3; i.v.; 1×10^9 minicells per dose; IFN-gamma 0.5×10^4 IU per dose; by day 43, six doses
Excerpt: As described above, minicells were produced from an S. typhimurium minCDE-mutant strain and were purified using a gradient centrifugation/filamentation/filtration/endotoxin removal procedure previously described in MacDiarmid et al. (2007). The purified minicells were packaged with chemotherapeutic drug doxorubicin, also per MacDiarmid et al. (2007).
The bispecific antibody (BsAb) was a single polypeptide containing binding specificity respectively for S. typhimurium O-polysaccharide, present on minicells, and for human EGFR, overexpressed on alveolar adenocarcinoma cells. The O-polysaccharide specificity was derived from a mouse monoclonal antibody, for which the variable regions were isolated from a hybridoma cell line and presented as a single-chain variable fragment (scFv). The hybridoma cell line was prepared by immunizing mice with purified LPS and fusing the lymphocytes with tumor cells. Subsequently, the clones were screened for an antibody capable of binding the O-polysaccharide. The EGFR specificity, also presented as an scFv, was derived from the commercial antibody Erbitux® (Bristol Myers Squibb, USA). […]
The resulting tumors were measured twice a week, using an electronic digital caliper (Mitutoyo, Japan, with a measure accuracy of +/−0.001 inch), and mean tumor volume was calculated using the formula length (mm)×width (mm^2)×0.5=volume (mm^3). […]

Measured: anti-tumor effect (tumor volume)

B1: IFN-gamma: interferon-gamma protein; given i.v. to mice, or endogenous serum level in dogs (protein, UniProt P01580 23-155, looked up)
Interferon gamma: HGTVIESLESLNNYFNSSGIDVEEKSLFLDIWRNWQKDGDMKILQSQIISFYLRLFEVLKDNQAISNNISVIESHLITTFFSNSKAKKDAFMSIAKFEVNNPQVQRQAFNELIRVVHQLLPESSLRKRKRSRC
no anti-tumor efficacy: all assays above

— patent US9731011B2, “Combination tumor treatment with drug-loaded, bispecific ligand-targeted minicells and interferon-gamma” (EnGeneIC Molecular Delivery Pty Ltd, priority 2013, dated 2017)
